In patent US20250381223A1 (UTC THERAPEUTICS SHANGHAI, published 2025):

What was measured:
Meso-biotin = target: T1, Meso-biotin; assay: flow cytometry, T cells with diabody mRNA only, Meso-biotin + PE-Streptavidin; E1 0.29
T1 construct: Meso-Fc and PE-anti-Fc for this staining

CD40-Fc [1] = target: T2, CD40-Fc ( for this staining reagent …, UniProt P25942); assay: flow cytometry, T cells with 10 µg diabody mRNA only, CD40-Fc + PE-anti-Fc; E1 (no mRNA) 0.48
T2 construct: soluble Fc fusion; Staining reagent, detected with PE-anti-Fc

CD40-Fc [2] = target: T2, CD40-Fc; assay: flow cytometry, T cells with diabody mRNA and M12 CAR mRNA, CD40-Fc + PE-anti-Fc; E1 0.48, E2 (M12 only) 0.77
[3] = target: T3, recombinant human CD40-His antigen protein (human, UniProt P25942 21-193); assay: ELISA; plate coated with CD40-His 2 µg/mL; HRP-anti-hFc
T3 construct: Bought protein; also called recombinant CD40-His protein; CD40 antigen; not shown: His tag
Protocol: The binding activities of the affinity-matured antibodies for antigen CD40 were detected by ELISA. The experimental procedures were as follows: [0637] 1. 50 μL of recombinant CD40-His protein at a concentration of 2 μg/mL was added to each well of an ELISA plate, and the plate was incubated at 4° C. overnight. […] 2. The next day, the ELISA plate was washed 3 times with PBST (containing 0.05% Tween-20). [0639] 3. 250 μL of 5% skim milk powder (dissolved in PBS) was added to each well of the ELISA plate, and the plate was incubated at room temperature for 2 h. [0640] 4. The plate was washed 3 times with PBST, antibodies with different dilution ratios were added to the ELISA plate at 50 μL/well, and the plate was incubated at room temperature for 60 min. [0641] 5. The plate was washed 3 times with PBST, 50 μL of HRP-anti-hFc antibody was added to each well, and the plate was incubated at room temperature for 60 min. [0642] 6. The plate was washed 3 times with PBST, 50 μL of TMB was added to each well, and after color development at room temperature, 50 μL of 2 M HCl was added to each well to stop the reaction. The plate was read at 450 nm.

Row | Binder | percent of cells in the gate (Meso-biotin) | percent of cells in the gate (CD40-Fc [1]) | percent of cells in the gate (CD40-Fc [2]) | EC50 [3]
1 | 4.6 (bispecific antibody, Expressed from mRNA in T cells; A signal peptide is not described; also called parent diabody 4.6) single chain, scFv-G4S-scFv: QVQLVQSGAEVKKPGSSVKVSCKASGGTFSSYAISWVRQAPGQGLEWMGMINPSGGTTSYAQKFQGRVTMTRDTSTSTVYMELSSLRPEDTAVYYCARGFRMDQWGQGTLVTVSSGGGGSGGGGSGGGGSQSALTQPPSASGSPGQSVTISCTGTSSDVGAYNFVSWYQQHPGNAPKLIIYDVRKRPSGIPDRFSASKSGNTASLTVSGLQADDEADYYCSSYAGNNNLVFGGGTKLTVLGGGGSQVKLQESGPGLVKPSETLSITCTVSGFSLSDYGVHWVRQSPGKGLEWLGVIWAGGGTNYNSALMSRKTISKDNSKSQVFLKMSSLTAADTAVYYCARDKGYSYYYSMDYWGQGTTVTVSSGGGGSGGGGSGGGGSDIQLTQSPSSLSVSVGDRVTISCRASESVEYYVTSLMQWYQQKPGQAPKLLIFAASNVESGVPSRFSGSGSGTNFTLTISSVQEEDFAMYFCQQSRKVPYTFGGGTKLEIK | 0.72% | 81.6% | 83.9% | –
2 | 5.17 (bispecific antibody, how the two are joined there is not described; also called diabody part of M12-5.17 and 5.17-M12) single chain, scFv-G4S-scFv: QVQLVQSGAEVKKPGSSVKVSCKASGGTFSSYAISWVRQAPGQGLEWMGMINPSGGTTSYAQKFQGRVTMTRDTSTSTVYMELSSLRPEDTAVYYCARGFRMDQWGQGTLVTVSSGGGGSGGGGSGGGGSQSALTQPPSASGSPGQSVTISCTGTSSDVGAYNFVSWYQQHPGNAPKLIIYDVRKRPSGIPDRFSASKSGNTASLTVSGLQADDEADYYCSSYAGNNEMVFGGGTKLTVLGGGGSQVKLQESGPGLVKPSETLSITCTVSGFSLSDYGVHWVRQSPGKGLEWLGVIWAGGGTNYNSALMSRKTISKDNSKSQVFLKMSSLTAADTAVYYCARDKGYSYYYSMDYWGQGTTVTVSSGGGGSGGGGSGGGGSDIQLTQSPSSLSVSVGDRVTISCRASESVEYYVTSLMQWYQQKPGQAPKLLIFAASNVESGVPSRFSGSGSGTNFTLTISSVQEEDFAMYFCQQSRKVPYTFGGGTKLEIK | 1.12% | 82.1% | 88.1% | –
3 | 5.36 (bispecific antibody) single chain, scFv-G4S-scFv: QVQLVQSGAQVKKPGSSVKVSCKASGGTFSSYAISWVRQAPGQGLEWMGMINPSGGTTSYAQKFQGRVTMTRDTSTSTVYMELSSLRPEDTAVYYCARGFRMDQWGQGTLVTVSSGGGGSGGGGSGGGGSQSALTQPPSASGSPGQSVTISCTGTSSDVGAYNFVSWYQQHPGNAPKLIIYDVRKRPIGIPDRFSASKSGNTASLTVSGLQADDEADYYCSSYAGNNNLVFGGGTKLTVLGGGGSQVKLQESGPGLVKPSETLSITCTVSGFSLSDYGVHWVRQSPGKGLEWLGVIWAGGGTNYNSALMSRKTISKDNSKSQVFLKMSSLTAADTAVYYCARDKGYSYYYSMDYWGQGTTVTVSSGGGGSGGGGSGGGGSDIQLTQSPSSLSVSVGDRVTISCRASESVEYYVTSLMQWYQQKPGQAPKLLIFAASNVESGVPSRFSGSGSGTNFTLTISSVQEEDFAMYFCQQSRKVPYTFGGGTKLEIK | 1.14% | 88% | 94.2% | –
4 | 5.12 (bispecific antibody) single chain, scFv-G4S-scFv: QVQLVQSGAEVKKPGSSVKVSCKASGGTFSSYAVSWVRQAPGQGLEWMGMINPSGGTTSYAQKFQGRVTMTRDTSTSTVYMELSSLRPEDTAVYYCARGFRMDQWGQGTLVTVSSGGGGSGGGGSGGGGSQSALTQPPSASGSPGQSVTISCTGTSSDVGAYNFVSWYQQHPGNAPKLIIYDVRKRPRGIPDRFSASKSGNTASLTVSGLQADDEADYYCSSYAGNNNLVFGGGTKLTVLGGGGSQVKLQESGPGLVKPSETLSITCTVSGFSLSDYGVHWVRQSPGKGLEWLGVIWAGGGTNYNSALMSRKTISKDNSKSQVFLKMSSLTAADTAVYYCARDKGYSYYYSMDYWGQGTTVTVSSGGGGSGGGGSGGGGSDIQLTQSPSSLSVSVGDRVTISCRASESVEYYVTSLMQWYQQKPGQAPKLLIFAASNVESGVPSRFSGSGSGTNFTLTISSVQEEDFAMYFCQQSRKVPYTFGGGTKLEIK | 1.11% | 93.6% | 87.9% | –
5 | 5.25 (bispecific antibody) single chain, scFv-G4S-scFv: QVQLVQSGAEVKKPGSSVKVSCKASGGTFSSYAISWVRQAPGQGLEWMGMINPSGGTTSYAQKFQGRVTMTRDTSTSTVYMELSSLRPEDTAVYYCARGFRMDQWGQGTLVTVSSGGGGSGGGGSGGGGSQSALTQPPSASGSPGQSVTISCTGTSSDVGAYNFVSWYQQHPGNAPKLIIYDVRKRPSGIPDRFSASKSGNTASLTVSGLQADDEADYYCSSYAGNNRLVFGGGTKLTVLGGGGSQVKLQESGPGLVKPSETLSITCTVSGFSLSDYGVHWVRQSPGKGLEWLGVIWAGGGTNYNSALMSRKTISKDNSKSQVFLKMSSLTAADTAVYYCARDKGYSYYYSMDYWGQGTTVTVSSGGGGSGGGGSGGGGSDIQLTQSPSSLSVSVGDRVTISCRASESVEYYVTSLMQWYQQKPGQAPKLLIFAASNVESGVPSRFSGSGSGTNFTLTISSVQEEDFAMYFCQQSRKVPYTFGGGTKLEIK | 2.36% | 92.7% | 92.9% | –
6 | 5.28 (bispecific antibody) single chain, scFv-G4S-scFv: QVQLVQSGAEVKKPGSSVKVSCKASGGTFSSYAISWVRQAPGQGLEWMGMINPSGGTTSYAQKFQGRVTMTRDTSTSTVYMELSSLRPEDTAVYYCARGFRMDQWGQGTLVTVSSGGGGSGGGGSGGGGSQSALTQPPSASGSPGQSVTISCTGTSSDVGAYNFVSWYQQHPGNAPKLIIYDTRKRPSGIPDRFSASKSGNTASLTVSGLQADDEADYYCSSYAGNNNLVFGGGTKLTVLGGGGSQVKLQESGPGLVKPSETLSITCTVSGFSLSDYGVHWVRQSPGKGLEWLGVIWAGGGTNYNSALMSRKTISKDNSKSQVFLKMSSLTAADTAVYYCARDKGYSYYYSMDYWGQGTTVTVSSGGGGSGGGGSGGGGSDIQLTQSPSSLSVSVGDRVTISCRASESVEYYVTSLMQWYQQKPGQAPKLLIFAASNVESGVPSRFSGSGSGTNFTLTISSVQEEDFAMYFCQQSRKVPYTFGGGTKLEIK | 0.94% | 85.8% | 87.4% | –
7 | 4052.12 (antibody, V domains shown) VH: QVQLVQSGAEVKKPGSSVKVSCKASGGTFSSYAVSWVRQAPGQGLEWMGMINPSGGTTSYAQKFQGRVTMTRDTSTSTVYMELSSLRPEDTAVYYCARGFRMDQWGQGTLVTVSS VL: QSALTQPPSASGSPGQSVTISCTGTSSDVGAYNFVSWYQQHPGNAPKLIIYDVRKRPRGIPDRFSASKSGNTASLTVSGLQADDEADYYCSSYAGNNNLVFGGGTKLTVL | – | – | – | 0.124 µg/mL
8 | 4052.28 (antibody, V domains shown) VH: QVQLVQSGAEVKKPGSSVKVSCKASGGTFSSYAISWVRQAPGQGLEWMGMINPSGGTTSYAQKFQGRVTMTRDTSTSTVYMELSSLRPEDTAVYYCARGFRMDQWGQGTLVTVSS VL: QSALTQPPSASGSPGQSVTISCTGTSSDVGAYNFVSWYQQHPGNAPKLIIYDTRKRPSGIPDRFSASKSGNTASLTVSGLQADDEADYYCSSYAGNNNLVFGGGTKLTVL | – | – | – | 0.116 µg/mL
9 | 4052.36 (antibody, V domains shown) VH: QVQLVQSGAQVKKPGSSVKVSCKASGGTFSSYAISWVRQAPGQGLEWMGMINPSGGTTSYAQKFQGRVTMTRDTSTSTVYMELSSLRPEDTAVYYCARGFRMDQWGQGTLVTVSS VL: QSALTQPPSASGSPGQSVTISCTGTSSDVGAYNFVSWYQQHPGNAPKLIIYDVRKRPIGIPDRFSASKSGNTASLTVSGLQADDEADYYCSSYAGNNNLVFGGGTKLTVL | – | – | – | 0.134 µg/mL
10 | 4052.25 (antibody, V domains shown) VH: QVQLVQSGAEVKKPGSSVKVSCKASGGTFSSYAISWVRQAPGQGLEWMGMINPSGGTTSYAQKFQGRVTMTRDTSTSTVYMELSSLRPEDTAVYYCARGFRMDQWGQGTLVTVSS VL: QSALTQPPSASGSPGQSVTISCTGTSSDVGAYNFVSWYQQHPGNAPKLIIYDVRKRPSGIPDRFSASKSGNTASLTVSGLQADDEADYYCSSYAGNNRLVFGGGTKLTVL | – | – | – | 0.111 µg/mL
